Measured values published in US20190184028A1 (Janssen / Centocor, published 2019).
Where a chain is given by its changes, count along the chain named.

T1: human EpCAM (human, UniProt P16422 24-314)
T1 sequence (looked up): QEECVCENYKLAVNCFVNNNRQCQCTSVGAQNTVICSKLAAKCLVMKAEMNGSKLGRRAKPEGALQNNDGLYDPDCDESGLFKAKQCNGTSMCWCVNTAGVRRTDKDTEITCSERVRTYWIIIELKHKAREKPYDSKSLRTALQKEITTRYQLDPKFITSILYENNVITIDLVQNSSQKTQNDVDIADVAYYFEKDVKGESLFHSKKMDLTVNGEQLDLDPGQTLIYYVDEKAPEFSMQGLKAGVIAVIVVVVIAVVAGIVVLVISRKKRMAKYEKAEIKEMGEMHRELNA

B1: ISOP130R5CP6_A06_cys vcMMAF conjugate (designed binder)
chain: MLPAPKNLVVSRVTEDSARLSWKHYRPGARFDSFLIQYQESEKVGEAIVLTVPGSERSYDLTGLKPGTEYTVSIYGVVTALPSYYSSNPLSAIFTTGGHHHHHHGGC
modifications: vc-MMAF on the C-terminal cysteine (cysteine-maleimide chemistry)
B2: ISOP130R5CP7_G04_cys vcMMAF conjugate (designed binder)
chain: B1 chain with V78A, T79A, A80H, L81A, P82I, S83P, Y84R, S86A
modifications: vc-MMAF on the C-terminal cysteine (cysteine-maleimide chemistry)
B3: Iso124R5AB_D6_cys vcMMAF conjugate (designed binder)
chain: MLPAPKNLVVSRVTEDSARLSWHNHRPQFDSFLIQYQESEKVGEAIVLTVPGSERSYDLTGLKPGTEYTVSIYGVAIAVPWNYQSNPLSAIFTTGGHHHHHHGGC
modifications: vc-MMAF on the C-terminal cysteine (cysteine-maleimide chemistry)
B4: EEB9 PEG4-MMAF conjugate (designed binder)
chain: MLPAPKNLVVSRVTEDSARLSWTAPDAAFDSFQIYYSELLSYGEAIVLTVPGSERSYDLTGLCPGTEYTVSINGVKGGTRSWSLSAIFTTAPAPAPAPAPLPAPKNLVVSRVTEDSARLSWTAPDAAFDSFQIYYSELLSYGEAIVLTVPGSERSYDLTGLCPGTEYTVSINGVKGGTRSWSLSAIFTTAPAPAPAPAPTIDEWLLKEAKEKAIEELKKAGITSDYYFDLINKAKTVEGVNALKDEILKA
modifications: Iodoacetyl-PEG4-MMAF on cysteines; 2 MMAF after conjugation
notes: Bivalent P155R8-G3 with ABDcon12
B5: EEB8 PEG4-MMAF conjugate (designed binder)
chain: B4 chain with C162K
modifications: Iodoacetyl-PEG4-MMAF on cysteine; 1 MMAF after conjugation
B6: EEB10 PEG4-MMAF conjugate (designed binder)
chain: B4 chain with A93C, A192C
modifications: Iodoacetyl-PEG4-MMAF on cysteines; 4 MMAF after conjugation
notes: as for B4
B7: EEB11 PEG4-MMAF conjugate (designed binder)
chain: B4 chain with A93C
modifications: Iodoacetyl-PEG4-MMAF on cysteines; 3 MMAF after conjugation
notes: as for B4
B8: P233FR9P1001-H3-1 vcMMAF conjugate (designed binder)
chain: LPAPKNLVVSRVTEDSARLSWTAPDAAFDSFPIGYWEWDDDGEAIVLTVPGSERSYDLTGLKPGTEYHVYIAGVKGGQWSFPLSAIFTT
modifications: vc-MMAF conjugated through a sortase tag (Gly3-vc-MMAF, sortase A)
B9: P233FR9_H10 vcMMAF conjugate (designed binder)
chain: B8 chain with P32A, H68P
modifications: vc-MMAF conjugated through a sortase tag (Gly3-vc-MMAF, sortase A)
B10: P229CR5P819_H11 vcMMAF conjugate (designed binder)
chain: LPAPKNLVVSRVTEDSARLSWDIDEQRDWFDSFLIQYQESEKVGEAIVLTVPGSERSYDLTGLKPGTEYTVSIYGVYHVYRSSNPLSAIFTT
modifications: vc-MMAF conjugated through a sortase tag (Gly3-vc-MMAF, sortase A)
B11: P234CR9_H01 vcMMAF conjugate (designed binder)
chain: LPAPKNLVVSRVTEDSARLSWEWWVIPGDFDSFLIQYQESEKVGEAIVLTVPGSERSYDLTGLKPGTEYTVSIYGVVNSGQWNDTSNPLSAIFTT
modifications: vc-MMAF conjugated through a sortase tag (Gly3-vc-MMAF, sortase A)
B12: ISOP130R5CP7_G02srt vcMMAF conjugate (designed binder)
chain: MLPAPKNLVVSRVTEDSARLSWKHYRPGARFDSFLIQYQESEKVGEAIILTVPGSERSYDLTGLKPGTEYTVSIYGVVTHALPTAYTSNPLSAIFTTGGHHHHHHGGLPETGGH
modifications: vcMMAF conjugated via the sortase reaction at the C-terminal sortase tag (Gly3-vcMMAF)
B13: ISOP130R5CP6_A02srt vcMMAF conjugate (designed binder)
chain: B12 chain with I49V, T79N, H80N, T84R, A85W, T87I
modifications: vcMMAF conjugated via the sortase reaction at the C-terminal sortase tag (Gly3-vcMMAF)
B14: ISOP130R5CP6_F02srt vcMMAF conjugate (designed binder)
chain: B12 chain with K23D, H24Q, P27K, G28Y, R30G, I49V, T84Q, A85T, T87Q
modifications: vcMMAF conjugated via the sortase reaction at the C-terminal sortase tag (Gly3-vcMMAF)
B15: ISOP130R5CP7_F11srt vcMMAF conjugate (designed binder)
chain: B12 chain with I49V, V78I, T79W, H80G, T84N, A85S, T87S
modifications: vcMMAF conjugated via the sortase reaction at the C-terminal sortase tag (Gly3-vcMMAF)
B16: ISOP130R5CP6_F01srt vcMMAF conjugate (designed binder)
chain: MLPAPKNLVVSRVTEDSARLSWKHYRPGARFDSFLIQYQESEKVGEAIVLTVPGSERSYDLTGLKPGTEYTVSIYGVVTALPSNYISNPLSAIFTTGGHHHHHHGGLPETGGH
modifications: vcMMAF conjugated via the sortase reaction at the C-terminal sortase tag (Gly3-vcMMAF)
B17: ISOP130R5CP6_A06srt vcMMAF conjugate (designed binder)
chain: B16 chain with N84Y, I86S
modifications: vcMMAF conjugated via the sortase reaction at the C-terminal sortase tag (Gly3-vcMMAF)
B18: ISOP130R5CP6_E08srt vcMMAF conjugate (designed binder)
chain: B16 chain with T79A, S83N, I86A
modifications: vcMMAF conjugated via the sortase reaction at the C-terminal sortase tag (Gly3-vcMMAF)
B19: ISOP130R5CP6_A06_K23A vcMMAF conjugate (designed binder)
chain: B16 chain with K23A, N84Y, I86S
modifications: vcMMAF conjugated via the sortase reaction at the C-terminal sortase tag
B20: ISOP130R5CP6_A06_H24A vcMMAF conjugate (designed binder)
chain: B16 chain with H24A, N84Y, I86S
modifications: vcMMAF conjugated via the sortase reaction at the C-terminal sortase tag
B21: ISOP130R5CP6_A06_Y25A vcMMAF conjugate (designed binder)
chain: B16 chain with Y25A, N84Y, I86S
modifications: vcMMAF conjugated via the sortase reaction at the C-terminal sortase tag
B22: ISOP130R5CP6_A06_R26A vcMMAF conjugate (designed binder)
chain: B16 chain with R26A, N84Y, I86S
modifications: vcMMAF conjugated via the sortase reaction at the C-terminal sortase tag
B23: ISOP130R5CP6_A06_P27A vcMMAF conjugate (designed binder)
chain: B16 chain with P27A, N84Y, I86S
modifications: vcMMAF conjugated via the sortase reaction at the C-terminal sortase tag
B24: ISOP130R5CP6_A06_G28A vcMMAF conjugate (designed binder)
chain: B16 chain with G28A, N84Y, I86S
modifications: vcMMAF conjugated via the sortase reaction at the C-terminal sortase tag
B25: ISOP130R5CP6_A06_R30A vcMMAF conjugate (designed binder)
chain: B16 chain with R30A, N84Y, I86S
modifications: vcMMAF conjugated via the sortase reaction at the C-terminal sortase tag
B26: ISOP130R5CP6_A06_V78A vcMMAF conjugate (designed binder)
chain: B16 chain with V78A, N84Y, I86S
modifications: vcMMAF conjugated via the sortase reaction at the C-terminal sortase tag
B27: ISOP130R5CP6_A06_T79A vcMMAF conjugate (designed binder)
chain: B16 chain with T79A, N84Y, I86S
modifications: vcMMAF conjugated via the sortase reaction at the C-terminal sortase tag
B28: ISOP130R5CP6_A06_L81A vcMMAF conjugate (designed binder)
chain: B16 chain with L81A, N84Y, I86S
modifications: vcMMAF conjugated via the sortase reaction at the C-terminal sortase tag
B29: ISOP130R5CP6_A06_P82A vcMMAF conjugate (designed binder)
chain: B16 chain with P82A, N84Y, I86S
modifications: vcMMAF conjugated via the sortase reaction at the C-terminal sortase tag
B30: ISOP130R5CP6_A06_S83A vcMMAF conjugate (designed binder)
chain: B16 chain with S83A, N84Y, I86S
modifications: vcMMAF conjugated via the sortase reaction at the C-terminal sortase tag
B31: ISOP130R5CP6_A06_Y84A vcMMAF conjugate (designed binder)
chain: B16 chain with N84A, I86S
modifications: vcMMAF conjugated via the sortase reaction at the C-terminal sortase tag
B32: ISOP130R5CP6_A06_Y85A vcMMAF conjugate (designed binder)
chain: B16 chain with N84Y, Y85A, I86S
modifications: vcMMAF conjugated via the sortase reaction at the C-terminal sortase tag
B33: ISOP130R5CP6_A06_S86A vcMMAF conjugate (designed binder)
chain: B16 chain with N84Y, I86A
modifications: vcMMAF conjugated via the sortase reaction at the C-terminal sortase tag

Target: T1, human EpCAM
Test: cell-based or functional assay

Binder	Cytotoxicity Assays of CDCs, A431 cells IC50 (nm)	Cytotoxicity Assays of CDCs, HT-29 cells IC50 (nm)
B1	9.9 nm	6.7 nm
B2	48.1 nm	37.7 nm
B3	59.2 nm	38.3 nm

Target: T2, epidermal growth factor receptor (EGFR) (human, UniProt P00533 25-1210)
T2 construct: whole, on cells; The cell assays use human tumour lines; also called hEGFR
Test: table column 'Binding antigen'; no assay given

Binder	binding result
B4	binds
B5	binds
B6	binds
B7	binds

Target: prostate specific membrane antigen (PSMA) (UniProt Q04609 1-750, limits assumed)
Sequence (Q04609 whole entry): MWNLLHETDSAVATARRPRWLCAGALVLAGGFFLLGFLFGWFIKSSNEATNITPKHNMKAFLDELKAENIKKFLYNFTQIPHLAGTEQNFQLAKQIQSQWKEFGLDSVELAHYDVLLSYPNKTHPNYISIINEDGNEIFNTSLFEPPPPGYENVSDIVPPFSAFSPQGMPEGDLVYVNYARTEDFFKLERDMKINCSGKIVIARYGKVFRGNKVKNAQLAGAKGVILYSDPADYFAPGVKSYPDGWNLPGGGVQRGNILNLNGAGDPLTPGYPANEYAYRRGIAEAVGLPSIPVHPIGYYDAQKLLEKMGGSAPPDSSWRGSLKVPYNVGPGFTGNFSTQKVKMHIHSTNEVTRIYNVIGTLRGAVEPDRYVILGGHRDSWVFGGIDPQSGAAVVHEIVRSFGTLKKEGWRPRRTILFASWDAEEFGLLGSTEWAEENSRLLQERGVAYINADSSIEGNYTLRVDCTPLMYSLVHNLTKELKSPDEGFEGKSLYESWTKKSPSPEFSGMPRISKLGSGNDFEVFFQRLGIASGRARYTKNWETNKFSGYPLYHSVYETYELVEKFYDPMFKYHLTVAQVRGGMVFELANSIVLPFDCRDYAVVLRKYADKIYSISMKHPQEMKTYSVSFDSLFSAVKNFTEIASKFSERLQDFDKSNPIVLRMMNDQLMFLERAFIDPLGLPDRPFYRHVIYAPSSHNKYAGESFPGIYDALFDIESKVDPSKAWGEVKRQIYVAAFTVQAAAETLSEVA
Test: cell-based or functional assay

Binder	LNCaP cells IC50 (nM), cytotoxicity (CellTiterGlo)	MDA-PCA-2B cells IC50 (nM), cytotoxicity (CellTiterGlo)	VCAP cells IC50 (nM), cytotoxicity (CellTiterGlo)
B8	0.4 nM	4.6 nM	15.2 nM
B9	0.5 nM	5.8 nM	25.9 nM
B10	9.3 nM	107 nM	231 nM
B11	22.6 nM	151 nM	401 nM

Target: T1, human EpCAM
Test: cell-based or functional assay
Remark: another data set of the same source

Binder	% viable COLO205 cells, 1 nM
B12	39%
B13	66%
B14	90%
B15	81%
B16	43%
B17	67%
B18	66%

Target: T1, human EpCAM
Test: cell-based or functional assay
Remark: another data set of the same source

Binder	IC50 (nM), cytotoxicity on COLO205 cells (CellTiterGlo)
B17	1.6 nM
B19	1 nM
B20	2.6 nM
B21	127 nM
B22	507 nM
B23	42.6 nM
B24	0.8 nM
B25	0.8 nM
B26	4.5 nM
B27	0.5 nM
B28	76 nM
B29	326 nM
B30	1.4 nM
B31	0.4 nM
B32	564 nM
B33	1.3 nM
